Results: patent US20220177587A1, “METHODS AND USES OF VARIANT CD80 FUSION PROTEINS AND RELATED CONSTRUCTS” (Alpine Immune Sciences, Inc., priority 2018, published 2022)

Legend:
CD28 [1] = molecular target: T1, CD28 (Homo sapiens, UniProt P10747); assay: Flow binding to Jurkat/IL2 reporter cells (CD28); set-up: host or cells: Jurkat cells expressing an IL-2-luciferase reporter; details: 33.3 nM; for CD28 MFI at 33.3 nM: Jurkats (CD28)
In short: (§1)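 Flow cytometry on transfected CHO cells or CD28+ Jurkat/IL2 reporter cells, blocked 20 min in PBS/1% BSA/0.1% azide. Fusion protein 45 min on ice; PE anti-human Fc 1:150, 30 min on ice; fixed in 2% formaldehyde. Read-out PE MFI, EC50 calculated.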

CD28 [2] = molecular target: T1, CD28; assay: Jurkat/IL2 + CHO/OKT3 +/- PD-L1 reporter assay: PD-L1-dependent CD28 costimulation; assay type: cell-based; set-up: host or cells: Jurkat cells expressing an IL-2-luciferase reporter; details: Jurkat/IL2 + CHO/OKT3/PD-L1, 5.0 nM
In short: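 Jurkat reporter cells (100,000/well) preincubated 15 min at room temperature with test protein, then cocultured 5 h at 37 °C with CHO aAPCs bearing anti-CD3 scFv (OKT3) with or without PD-L1. Luciferase luminescence (RLU) read after lysis-substrate addition.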

huCTLA4 = huCTLA4 (Homo sapiens, UniProt P16410); assay: Flow binding to CHO cells stably expressing CTLA4; set-up: huCTLA4 and huPD-L1, full-length mammalian surface expression constructs were generated; expressed in transfected cells; host or cells: CHO cells, lentiviral transduction, sorted to >98% purity; details: 33.3 nM; for CTLA4 MFI at 33.3 nM: CHO cells stably expressing CTLA4
Chain of huCTLA4 (P16410 36-223): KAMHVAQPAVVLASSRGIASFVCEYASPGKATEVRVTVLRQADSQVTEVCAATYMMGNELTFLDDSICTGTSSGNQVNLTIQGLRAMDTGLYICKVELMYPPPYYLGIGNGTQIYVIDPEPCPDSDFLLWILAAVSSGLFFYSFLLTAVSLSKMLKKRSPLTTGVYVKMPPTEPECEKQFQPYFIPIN
In short: as §1

huPD-L1 = huPD-L1 (Homo sapiens, UniProt Q9NZQ7); assay: Flow binding to CHO cells stably expressing PD-L1; set-up: huCTLA4 and huPD-L1, full-length mammalian surface expression constructs were generated; expressed in transfected cells; host or cells: CHO cells, lentiviral transduction, sorted to >98% purity; details: for PD-L1 Fold change to WT CD80 / PD-L1 MFI at 33.3 nM: 33.3 nM; for PD-L1 MFI at 33.3 nM: CHO cells stably expressing PD-L1
Chain of huPD-L1 (Q9NZQ7 19-290): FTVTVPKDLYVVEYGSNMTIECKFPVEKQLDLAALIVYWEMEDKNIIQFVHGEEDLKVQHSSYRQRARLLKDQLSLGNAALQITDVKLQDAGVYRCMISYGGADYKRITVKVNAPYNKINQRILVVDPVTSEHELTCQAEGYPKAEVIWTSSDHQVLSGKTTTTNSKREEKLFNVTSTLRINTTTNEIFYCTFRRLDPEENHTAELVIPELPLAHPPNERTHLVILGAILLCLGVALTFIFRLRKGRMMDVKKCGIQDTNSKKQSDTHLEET
In short: as §1

[3] = Table E11, listed as WT CD80 ECD-Fc = 1.0
[4] = Table E10, relative to CD80 WT IgV-Fc
[5] = Table E10, binding to PD-L1 compared to binding to CD28

| Molecule | CD28 Fold change to WT CD80 (CD28 [1]; [3]) | CD28 MFI at 33.3 nM (CD28 [1]; Table E11) | Fold Increase over WT CD80-IgV-Fe (CD28 [2]; Table E13) | Relative Luciferase Units (RLU), CD80 Cone 5.0 nM (CD28 [2]; Table E13) [RLU] | CTLA4 Fold change to WT CD80 (huCTLA4; [3]) | CTLA4 MFI at 33.3 nM (huCTLA4; Table E11) | PD-L1 Fold change to WT CD80 (huPD-L1; [3]) | PD-L1 MFI at 33.3 nM (huPD-L1; Table E11) | Ratio of PDL1:CD28 (huPD-L1; Table E11, MFI at 33.3 nM) | CD28 MFI at 33.3 nM (CD28 [1]; Table E10) | CD28 Fold change to WT CD80 (CD28 [1]; [4]) | Fold Increase over WT CD80-IgV-Fe (CD28 [2]; Table E12) | Relative Luciferase Units (RLU), CD80 Cone 5.0 nM (CD28 [2]; Table E12) [RLU] | CTLA4 MFI at 33.3 nM (huCTLA4; Table E10) | CTLA4 Fold change to WT CD80 (huCTLA4; [4]) | PD-L1 MFI at 33.3 nM (huPD-L1; Table E10) | PD-L1 Fold change to WT CD80 (huPD-L1; [4]) | Ratio of PDL1:CD28 (huPD-L1; [5]) |
| --- | --- | --- | --- | --- | --- | --- | --- | --- | --- | --- | --- | --- | --- | --- | --- | --- | --- | --- |
| E35D/M43I/M47L/V68M (protein, UniProt P33681 35-288, looked up, variant E35D M43I M47L V68M) T-lymphocyte activation …: VIHVTKEVKEVATLSCGHNVSVEELAQTRIYWQKDKKMVLTMISGDLNIWPEYKNRTIFDITNNLSIMILALRPSDEGTYECVVLKYEKDAFKREHLAEVTLSVKADFPTPSISDFEIPTSNIRRIICSTSGGFPEPHLSWLENGEELNAINTTVSQDPETELYAVSSKLDFNMTTNHSFMCLIKYGHLRVNQTFNWNTTKQEHFPDNLLPSWAITLISVNGIFVICCLTYCFAPRCRERRRNERLRRESVRPV | 48.3 | 1517 | 2.7 | 1072 | 9.3 | 16243 | 328.4 | 16912 | 11.1 |  |  |  |  |  |  |  |  |  |
| E35D/D46E/M47I (protein) VIHVTKEVKEVATLSCGHNVSVEELAQTRIYWQKDKKMVLTMMSGEINIWPEYKNRTIFDITNNLSIVILALRPSDEGTYECVVLKYEKDAFKREHLAEVTLSVKAD |  |  |  |  |  |  |  |  |  | 1001 | 15.2 | 4.8 | 1915 | 21394 | 11.2 | 3789 | 53.9 | 4 |
| Q27H/E35D/M47I (protein) VIHVTKEVKEVATLSCGHNVSVEELAHTRIYWQKDKKMVLTMMSGDINIWPEYKNRTIFDITNNLSIVILALRPSDEGTYECVVLKYEKDAFKREHLAEVTLSVKAD |  |  |  |  |  |  |  |  |  | 756 | 11.5 | 4.6 | 1829 | 27530 | 14.4 | 3424 | 48.7 | 5 |
| H18Y/E35D (protein) VIHVTKEVKEVATLSCGYNVSVEELAQTRIYWQKDKKMVLTMMSGDMNIWPEYKNRTIFDITNNLSIVILALRPSDEGTYECVVLKYEKDAFKREHLAEVTLSVKAD |  |  |  |  |  |  |  |  |  | 479 | 7.3 | 5.0 | 1990 | 26258 | 13.7 | 3526 | 50.2 | 7 |
| E35D/D46E/L85M (protein) VIHVTKEVKEVATLSCGHNVSVEELAQTRIYWQKDKKMVLTMMSGEMNIWPEYKNRTIFDITNNLSIVILALRPSDEGTYECVVMKYEKDAFKREHLAEVTLSVKAD |  |  |  |  |  |  |  |  |  | 164 | 2.5 | 3.5 | 1413 | 30289 | 15.8 | 2880 | 41.0 | 18 |
| Q27L/E35D/M47V/I61V/L85M (protein) VIHVTKEVKEVATLSCGHNVSVEELALTRIYWQKDKKMVLTMMSGDVNIWPEYKNRTIFDVTNNLSIVILALRPSDEGTYECVVMKYEKDAFKREHLAEVTLSVKAD |  |  |  |  |  |  |  |  |  | 230 | 3.5 | 2.9 | 1166 | 27881 | 14.6 | 2705 | 38.5 | 12 |
| E35D/T41S/N48T (protein) VIHVTKEVKEVATLSCGHNVSVEELAQTRIYWQKDKKMVLSMMSGDMTIWPEYKNRTIFDITNNLSIVILALRPSDEGTYECVVLKYEKDAFKREHLAEVTLSVKAD |  |  |  |  |  |  |  |  |  | 72.4 | 1.1 | 2.8 | 1136 | 30262 | 15.8 | 2191 | 31.2 | 30 |
| E35D/D46E (protein) VIHVTKEVKEVATLSCGHNVSVEELAQTRIYWQKDKKMVLTMMSGEMNIWPEYKNRTIFDITNNLSIVILALRPSDEGTYECVVLKYEKDAFKREHLAEVTLSVKAD |  |  |  |  |  |  |  |  |  | 779 | 11.8 | 4.9 | 1961 | 27921 | 14.6 | 3757 | 53.4 | 5 |
| E35D/D46E/A91G (protein) VIHVTKEVKEVATLSCGHNVSVEELAQTRIYWQKDKKMVLTMMSGEMNIWPEYKNRTIFDITNNLSIVILALRPSDEGTYECVVLKYEKDGFKREHLAEVTLSVKAD |  |  |  |  |  |  |  |  |  | 3450 | 52.3 | 1.0 | 395 | 32189 | 16.8 | 2818 | 40.1 | 1 |
